According to US20260055205A1 (published 2026):
Residue numbers refer to the chain shown, from its start. Numbers in names are those of the source.

T1: cyCD3e-Fc (cynomolgus monkey, UniProt Q95LI5 22-117)
T1 sequence (looked up): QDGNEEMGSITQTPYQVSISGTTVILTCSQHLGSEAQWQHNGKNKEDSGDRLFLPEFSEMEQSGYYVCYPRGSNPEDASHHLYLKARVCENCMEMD

B1: PSMA.6 (uTCE of AC2728) (bispecific antibody, V domains shown)
VH: EVQLVESGGGVVQPGRSLRLSCAASGRTFGIYVMGWVRQAPGKEREFVAAISWSGSNRLVSDSVKGRFTISRDNSKNTLYLQMNSLRAEDTAVYFCAASNRLYGRTWYDFNESDYWGQGTTVTVSS
notes: TCE with CD3.23; also called VHH14
B2: PSMA.275 (bispecific antibody, V domains shown)
VH: B1 VH with E1Q, V37F, I51M, L59K, F95Y, L102T, T121Q
notes: TCE with CD3.23; also called AC3484
B3: PSMA.253 (bispecific antibody, V domains shown)
VH: B1 VH with E1Q, V37Y, L59K, F95Y, L102W, T121Q
notes: TCE with CD3.23; also called AC3464
B4: PSMA.289 (bispecific antibody, V domains shown)
VH: B1 VH with E1Q, M34F, I51M, L59K, F95Y, T121Q
notes: TCE with CD3.23; also called AC3498
B5: PSMA.272 (bispecific antibody, V domains shown)
VH: B1 VH with E1Q, V33A, I51M, L59K, F95Y, L102T, T121Q
notes: TCE with CD3.23; also called AC3481
B6: PSMA.277 (bispecific antibody, V domains shown)
VH: B1 VH with E1Q, M34F, A49G, L59K, F95Y, L102M, T121Q
notes: TCE with CD3.23; also called AC3486
B7: PSMA.270 (bispecific antibody, V domains shown)
VH: B1 VH with E1Q, M34W, A49G, L59K, F95Y, L102T, T121Q
notes: TCE with CD3.23; also called AC3479
B8: PSMA.278 (bispecific antibody, V domains shown)
VH: B1 VH with E1Q, M34W, A49G, L59K, F95Y, L102M, T121Q
notes: TCE with CD3.23; also called AC3487
B9: PSMA.286 (bispecific antibody, V domains shown)
VH: B1 VH with E1Q, M34W, A49G, L59K, F95Y, T121Q
notes: TCE with CD3.23; also called AC3495
B10: PSMA.267 (bispecific antibody, V domains shown)
VH: B1 VH with E1Q, V37F, I51M, L59K, F95Y, R101K, T121Q
notes: TCE with CD3.23; also called AC3476
B11: PSMA.269 (bispecific antibody, V domains shown)
VH: B1 VH with E1Q, M34F, A49G, L59K, F95Y, L102T, T121Q
notes: TCE with CD3.23; also called AC3478
B12: PSMA.280 (bispecific antibody, V domains shown)
VH: B1 VH with E1Q, V33A, I51M, L59K, F95Y, L102M, T121Q
notes: TCE with CD3.23; also called AC3489
B13: PSMA.261 (bispecific antibody, V domains shown)
VH: B1 VH with E1Q, M34F, A49G, L59K, F95Y, R101K, T121Q
notes: TCE with CD3.23; also called AC3470
B14: PSMA.282 (bispecific antibody, V domains shown)
VH: B1 VH with E1Q, M34W, I51M, L59K, F95Y, L102M, T121Q
notes: TCE with CD3.23; also called AC3491
B15: PSMA.273 (bispecific antibody, V domains shown)
VH: B1 VH with E1Q, M34F, I51M, L59K, F95Y, L102T, T121Q
notes: TCE with CD3.23; also called AC3482
B16: PSMA.250 (bispecific antibody, V domains shown)
VH: B1 VH with E1Q, V37Y, I51M, L59K, F95Y, R101K, T121Q
notes: TCE with CD3.23; also called AC3461
B17: PSMA.265 (bispecific antibody, V domains shown)
VH: B1 VH with E1Q, M34F, I51M, L59K, F95Y, R101K, T121Q
notes: TCE with CD3.23; also called AC3474
B18: PSMA.285 (bispecific antibody, V domains shown)
VH: B1 VH with E1Q, M34F, A49G, L59K, F95Y, T121Q
notes: TCE with CD3.23; also called AC3494
B19: PSMA.288 (bispecific antibody, V domains shown)
VH: B1 VH with E1Q, V33A, I51M, L59K, F95Y, T121Q
notes: TCE with CD3.23; also called AC3497
B20: PSMA.268 (bispecific antibody, V domains shown)
VH: B1 VH with E1Q, V33A, A49G, L59K, F95Y, L102T, T121Q
notes: TCE with CD3.23; also called AC3477
B21: AC3471 (PSMA.262 with CD3.23) (bispecific antibody, V domains shown)
VHH: B1 VH with E1Q, M34W, A49G, L59K, F95Y, R101K, T121Q
VL: ELVVTQEPSLTVSPGGTVTLTCRSSNGAVTSSNYANWVQQKPGQAPRGLIGGTNKRAPGTPARFSGSLLGGKAALTLSGVQPEDEAVYYCALWYPNLWVFGGGTKLTVL
VH: EVQLLESGGGIVQPGGSLKLSCAASGFTFNTYAMNWVRQAPGKGLEWVARIRSKYNNYATYYADSVKDRFTISRDDSKNTVYLQMNNLKTEDTAVYYCVRHENFGNSYVSWFAHWGQGTLVTVSS
notes: Domains of one TCE chain; also called CD3.23 WT
B22: PSMA.252 (bispecific antibody, V domains shown)
VH: B1 VH with E1Q, V37Y, I51M, L59K, F95Y, L102W, T121Q
notes: TCE with CD3.23; also called AC3463
B23: PSMA.257 (bispecific antibody, V domains shown)
VH: B1 VH with E1Q, V37Y, L59K, F95Y, T121Q
notes: TCE with CD3.23; also called AC3468
B24: PSMA.283 (bispecific antibody, V domains shown)
VH: B1 VH with E1Q, V37F, I51M, L59K, F95Y, L102M, T121Q
notes: TCE with CD3.23; also called AC3492
B25: PSMA.279 (bispecific antibody, V domains shown)
VH: B1 VH with E1Q, V37F, A49G, L59K, F95Y, L102M, T121Q
notes: TCE with CD3.23; also called AC3488
B26: PSMA.260 (bispecific antibody, V domains shown)
VH: B1 VH with E1Q, V33A, A49G, L59K, F95Y, R101K, T121Q
notes: TCE with CD3.23; also called AC3469
B27: PSMA.255 (bispecific antibody, V domains shown)
VH: B1 VH with E1Q, V37Y, L59K, F95Y, L102Y, T121Q
notes: TCE with CD3.23; also called AC3466
B28: PSMA.256 (bispecific antibody, V domains shown)
VH: B1 VH with E1Q, V37Y, I51M, L59K, F95Y, T121Q
notes: TCE with CD3.23; also called AC3467
B29: PSMA.274 (bispecific antibody, V domains shown)
VH: B1 VH with E1Q, M34W, I51M, L59K, F95Y, L102T, T121Q
notes: TCE with CD3.23; also called AC3483
B30: PSMA.266 (bispecific antibody, V domains shown)
VH: B1 VH with E1Q, M34W, I51M, L59K, F95Y, R101K, T121Q
notes: TCE with CD3.23; also called AC3475
B31: PSMA.291 (bispecific antibody, V domains shown)
VH: B1 VH with E1Q, V37F, I51M, L59K, F95Y, T121Q
notes: TCE with CD3.23; also called AC3500
B32: PSMA.281 (bispecific antibody, V domains shown)
VH: B1 VH with E1Q, M34F, I51M, L59K, F95Y, L102M, T121Q
notes: TCE with CD3.23; also called AC3490
B33: PSMA.276 (bispecific antibody, V domains shown)
VH: B1 VH with E1Q, V33A, A49G, L59K, F95Y, L102M, T121Q
notes: TCE with CD3.23; also called AC3485
B34: PSMA.264 (bispecific antibody, V domains shown)
VH: B1 VH with E1Q, V33A, I51M, L59K, F95Y, R101K, T121Q
notes: TCE with CD3.23; also called AC3473
B35: PSMA.271 (bispecific antibody, V domains shown)
VH: B1 VH with E1Q, V37F, A49G, L59K, F95Y, L102T, T121Q
notes: TCE with CD3.23; also called AC3480
B36: PSMA.287 (bispecific antibody, V domains shown)
VH: B1 VH with E1Q, V37F, A49G, L59K, F95Y, T121Q
notes: TCE with CD3.23; also called AC3496
B37: PSMA.290 (bispecific antibody, V domains shown)
VH: B1 VH with E1Q, M34W, I51M, L59K, F95Y, T121Q
notes: TCE with CD3.23; also called AC3499
B38: PSMA.251 (bispecific antibody, V domains shown)
VH: B1 VH with E1Q, V37Y, L59K, F95Y, R101K, T121Q
notes: TCE with CD3.23; also called AC3462
B39: PSMA.284 (bispecific antibody, V domains shown)
VH: B1 VH with E1Q, V33A, A49G, L59K, F95Y, T121Q
notes: TCE with CD3.23; also called AC3493
B40: PSMA.254 (bispecific antibody, V domains shown)
VH: B1 VH with E1Q, V37Y, I51M, L59K, F95Y, L102Y, T121Q
notes: TCE with CD3.23; also called AC3465
B41: CD3.227 (bispecific antibody, V domains shown)
VH: B21 VH with L5V, K19R, A49G, S53T, Y55R, D68G, N87S
VL: B21 VL
notes: paTCE with PSMA.262; also called AC3658
B42: CD3.228 (bispecific antibody, V domains shown)
VH: B21 VH with L5V, K19R, N30S, A49G, S53T, Y55R, D68G, N87S
VL: B21 VL
notes: paTCE with PSMA.262; also called AC3659
B43: CD3.110 (bispecific antibody, V domains shown)
VH: B21 VH
VL: B21 VL with L68T
notes: paTCE with PSMA.5; also called AC3439; L66T
B44: CD3.109 (bispecific antibody, V domains shown)
VH: B21 VH
VL: B21 VL with L68N
notes: paTCE with PSMA.5; also called AC3438; L66N
B45: CD3.103 (bispecific antibody, V domains shown)
VH: B21 VH with A49G, Y58G, D68G, N87S
VL: B21 VL
notes: paTCE with PSMA.5; also called AC3432; A49G, Y52cG, D65G, N82bS

Biological target: T2, human PSMA-Fc (human, UniProt Q04609 44-750)
T2 construct: also called Human PSMA-Fc fusion
Assay: Octet

T2 sequence (Q04609 44-750 limits assumed): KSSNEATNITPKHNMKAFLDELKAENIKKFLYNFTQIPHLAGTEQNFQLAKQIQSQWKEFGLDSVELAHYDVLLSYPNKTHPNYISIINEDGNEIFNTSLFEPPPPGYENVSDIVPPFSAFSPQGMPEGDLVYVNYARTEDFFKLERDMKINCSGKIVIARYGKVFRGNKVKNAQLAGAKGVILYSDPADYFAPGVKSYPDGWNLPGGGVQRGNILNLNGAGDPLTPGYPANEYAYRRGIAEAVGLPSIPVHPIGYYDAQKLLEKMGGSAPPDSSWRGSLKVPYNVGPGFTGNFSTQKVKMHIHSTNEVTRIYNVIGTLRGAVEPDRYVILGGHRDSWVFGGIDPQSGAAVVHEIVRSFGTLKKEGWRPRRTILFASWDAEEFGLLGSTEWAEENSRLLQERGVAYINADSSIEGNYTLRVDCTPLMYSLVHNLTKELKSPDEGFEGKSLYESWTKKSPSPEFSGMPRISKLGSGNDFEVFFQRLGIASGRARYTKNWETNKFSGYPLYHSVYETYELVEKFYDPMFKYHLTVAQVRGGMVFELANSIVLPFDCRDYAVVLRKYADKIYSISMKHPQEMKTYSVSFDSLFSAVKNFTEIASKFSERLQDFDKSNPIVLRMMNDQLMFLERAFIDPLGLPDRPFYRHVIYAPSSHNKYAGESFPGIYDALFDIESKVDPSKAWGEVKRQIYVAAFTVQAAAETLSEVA

Binder | Kd [nM] | koff [s⁻¹] | kon [M⁻¹ s⁻¹]
B1 | 2.3 | 0.00024 | 96000

Biological target: T3, human PSMA (human, UniProt Q04609 44-750, limits assumed)
T3 construct: also called huPSMA; hPSMA
Assay: binding screen

T3 sequence (Q04609 44-750 limits assumed): as above

Binder | Kd [nM] | binding result
B2 | 20.5 | 
B3 | 8.5 | 
B4 | 6.2 | 
B5 | 504 | 
B6 | 3.1 | 
B7 | 6.5 | 
B8 | 3.9 | 
B9 |  | no binding
B10 | 5.6 | 
B11 | 5.5 | 
B12 | 16.3 | 
B13 | 2.1 | 
B14 | 8.7 | 
B15 | 16.6 | 
B16 | 6.2 | 
B17 | 3.9 | 
B18 | 3.1 | 
B19 | 6 | 
B20 | 131 | 
B21 | 2.7 | 

Binder | Kd [nM] | binding result
B22 | 15.9 | 
B23 | 2.3 | 
B24 | 3.5 | 
B25 | 2.3 | 
B26 | 11.4 | 
B27 | 18.9 | 
B28 | 3.4 | 
B29 | 39.6 | 
B30 | 4.6 | 
B31 | 2.6 | 
B32 | 5.3 | 
B33 | 10.5 | 
B34 | 18.6 | 
B35 | 9.1 | 
B36 | 2.3 | 
B37 | 5.5 | 
B38 | 5.1 | 
B39 | 4.1 | 
B40 | 41 | 

Biological target: T2, human PSMA-Fc
Assay: Octet, PSMA-Fc
Procedure: Binding affinity of select PSMA PTE variants was tested by Octet.

Binder | Kd [nM] | koff [s⁻¹] | kon [M⁻¹ s⁻¹]
B1 | 2.3 | 0.000235 | 96300

Biological target: huCD3e-Fc (human, UniProt P07766 23-126)
Assay: Octet, purified
Procedure: (§1) Pool 2 consisted of paTCE molecules each containing PSMA.262 and one of 64 CD3.23 mutation combination variants. Stability and affinity of the individually expressed molecules in the form of crude lysate was evaluated by Octet. […] The binding of these anti-CD3 molecules (CD3.227, CD3.228, CD3.229 and CD3.230) to human and cynomolgus CD3 was measured by Octet and the Tm was measured by Differential Scanning Fluorimetry. All variants were paired with PSMA.262 except for CD3.23 which was paired with PSMA.5.

Sequence of huCD3e-Fc (P07766 23-126): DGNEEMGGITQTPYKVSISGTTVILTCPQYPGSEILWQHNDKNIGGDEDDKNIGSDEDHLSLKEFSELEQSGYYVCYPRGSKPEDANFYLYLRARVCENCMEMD

Binder | Kd [nM] | koff [s⁻¹] | kon [M⁻¹ s⁻¹]
B41 | 57 | 0.0196 | 342000
B42 | 69 | 0.0217 | 317000

Biological target: T1, cyCD3e-Fc
Assay: Octet, purified
Procedure: as §1

Binder | Kd [nM] | koff [s⁻¹] | kon [M⁻¹ s⁻¹]
B41 | 80 | 0.0253 | 315000
B42 | 80 | 0.0266 | 334000

Biological target: T4, human CD3 epsilon (human, UniProt P07766 23-126, limits assumed)
T4 construct: also called huCD3e
Assay: Octet, crude lysate
Method in brief: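 Bispecific paTCE variants pairing PSMA.5 with single CD3.23 point mutants expressed individually; stability and affinity assessed by Octet biolayer interferometry using crude lysate.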

T4 sequence (P07766 23-126 limits assumed): as the sequence (P07766 23-126) above

Binder | Kd [nM]
B43 | 8.9
B44 | 8.3
B45 | 11.4

Biological target: T4, human CD3 epsilon
Assay: Octet, crude lysate
Remark: another data set of the same source
Procedure: as §1

Binder | Kd [nM]
B21 | 13.5
B41 | 8.2
B45 | 13.5
B42 | 6.2
